According to patent publication US20260193366A1 (APOGEE THERAPEUTICS, published 2026):
Substitutions are numbered along the chain they refer to.

B1: Construct 41 (mAb478) (antibody, IgG4, V domains shown)
VH: EVQLVESGGGLEQPGGSLRLSCAGSGFTFRDFAMTWVRQAPGKGLEWVSSISGGGGNTYYADSVKGRFTISRDNSKNTLYLQMNSLRAEDTAVYYCAKDRVSITIRPRYYGLDVWGQGTTVTVSS
VL: DIVMTQSPLSLPVTPGEPASISCTASQSLLYSIGYNYVDWYLQKSGQSPQLLIYLGNKRASGVPDRFSGSGSGTDFTLKISRVEAEDVGFYYCMQAYNSPYTFGQGTKLEIK
notes: VH/VL only
B2: Construct 30 (mAb439) (antibody, IgG4, V domains shown)
VH: B1 VH with F32Y, G54S, V101L
VL: DIVMTQSPLSLPVTPGEPASISCRSSQSLLYSNRNNYLDWYLQKSGQSPQLLIYSASIRASGVPDRFSGSGSGTDFTLKISRVEAEDVGFYYCMQAFQAPYTFGQGTKLEIK
notes: VH/VL only
B3: Construct 32 (mAb446) (antibody, IgG4, V domains shown)
VH: B1 VH with I51V, G54D, V101L, I103V, I105V
VL: B2 VL with R34G, N35Y, S55L, A56S, I58N
notes: VH/VL only
B4: Construct 42 (mAb481) (antibody, IgG4, V domains shown)
VH: B1 VH with D31T, F32Y, G54D, G56S
VL: B1 VL with Y97L, N98T, S99T
notes: VH/VL only
B5: Construct 45 (mAb494) (antibody, IgG4, V domains shown)
VH: B1 VH with G54S, G56D, N57G
VL: B1 VL with K58N, S61T, A96S, Y97L, N98Q, S99T
notes: VH/VL only
B6: Construct 43 (mAb482) (antibody, IgG4, V domains shown)
VH: B1 VH with V101L, T104A, I105V
VL: B1 VL with A25S, N57S, A96S, Y97L, N98T
notes: VH/VL only
B7: Construct 46 (mAb501) (antibody, IgG4, V domains shown)
VH: B1 VH with F32S, G54S, G56D, N57G, V101L, T104Y
VL: B1 VL with A25S, Y97L, N98Q, S99T
notes: VH/VL only
B8: Construct 44 (mAb485) (antibody, IgG4, V domains shown)
VH: B1 VH with G54S, T58I, V101L, I103K
VL: B1 VL with T24R, A25S, S26T, Y35K, L55E, K58N, A96S, Y97L, N98T
notes: VH/VL only

Assays:
hIL-4Rα on cells [1] = target: T1, hIL-4Rα on cells (human, UniProt P24394 26-825); assay: FACS on HEK293 cells, competitor biotin-hIL-13;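 also: stably transduced cells co-expressing both receptor chains, stained cold, with cell-bound signal read as mean fluorescence intensity by flow cytometry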
T1 sequence: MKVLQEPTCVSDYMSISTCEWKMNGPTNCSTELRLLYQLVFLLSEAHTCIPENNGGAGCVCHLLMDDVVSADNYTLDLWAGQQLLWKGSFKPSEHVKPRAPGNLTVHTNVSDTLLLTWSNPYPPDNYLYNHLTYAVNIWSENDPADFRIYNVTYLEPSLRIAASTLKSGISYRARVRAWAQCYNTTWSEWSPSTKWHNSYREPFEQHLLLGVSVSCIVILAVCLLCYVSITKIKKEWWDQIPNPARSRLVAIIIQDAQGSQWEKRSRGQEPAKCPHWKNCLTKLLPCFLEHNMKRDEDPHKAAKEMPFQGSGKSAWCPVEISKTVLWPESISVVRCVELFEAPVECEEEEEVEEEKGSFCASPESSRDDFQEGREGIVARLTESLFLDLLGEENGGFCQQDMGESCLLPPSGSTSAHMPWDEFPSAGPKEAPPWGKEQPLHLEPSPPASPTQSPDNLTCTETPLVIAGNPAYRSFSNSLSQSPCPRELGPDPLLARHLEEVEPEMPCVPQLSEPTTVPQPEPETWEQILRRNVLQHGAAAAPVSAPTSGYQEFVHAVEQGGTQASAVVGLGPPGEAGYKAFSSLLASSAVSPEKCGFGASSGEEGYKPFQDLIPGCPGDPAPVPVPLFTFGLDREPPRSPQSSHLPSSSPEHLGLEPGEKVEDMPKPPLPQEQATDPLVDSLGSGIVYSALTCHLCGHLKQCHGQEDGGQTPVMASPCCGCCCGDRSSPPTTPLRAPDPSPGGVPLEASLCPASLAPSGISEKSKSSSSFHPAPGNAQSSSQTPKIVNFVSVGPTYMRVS
Description: Briefly, HEK293 previously transduced to stably express both hIL-13Rα and hIL-4Rα were cultured and harvested. Cells were seeded at 200,000 cells in 100 uL per well. Cells were washed and the supernatant discarded. […] The cells were stained in this mixture at 4° C. for 1 hour. […] Cells were incubated 4° C. for 1 hour, protected from light. Cells were then washed and the MFI of cells in each well were recorded by FACS using a BD FACSCanto II. Subsequent data were analyzed using GraphPad Prism.

human IL-4Rα = target: T2, human IL-4Rα (human, UniProt P24394 26-232); assay: SPR, Carterra LSA;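 also: antibodies captured on an anti-human Fc sensor chip, antigen injected at several concentrations, association and dissociation rates fitted with a 1:1 Langmuir model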
T2 construct: also called Hu IL-4Rα; hIL-4Rα
T2 sequence: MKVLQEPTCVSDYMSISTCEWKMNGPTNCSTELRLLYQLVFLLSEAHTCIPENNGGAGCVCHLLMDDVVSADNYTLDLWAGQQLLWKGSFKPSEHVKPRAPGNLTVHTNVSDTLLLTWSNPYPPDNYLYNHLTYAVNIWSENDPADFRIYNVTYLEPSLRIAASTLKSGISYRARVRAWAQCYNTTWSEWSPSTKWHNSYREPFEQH

cynomolgus monkey IL-4Rα = target: T3, cynomolgus monkey IL-4Rα (cynomolgus monkey, UniProt P24394 26-231 (human entry), limits assumed); assay: SPR, Carterra LSA;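 also: antibodies captured on an anti-human Fc sensor chip, antigen injected at several concentrations, association and dissociation rates fitted with a 1:1 Langmuir model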
T3 construct: also called Cyno IL-4Rα; cyIL-4Rα
T3 chain: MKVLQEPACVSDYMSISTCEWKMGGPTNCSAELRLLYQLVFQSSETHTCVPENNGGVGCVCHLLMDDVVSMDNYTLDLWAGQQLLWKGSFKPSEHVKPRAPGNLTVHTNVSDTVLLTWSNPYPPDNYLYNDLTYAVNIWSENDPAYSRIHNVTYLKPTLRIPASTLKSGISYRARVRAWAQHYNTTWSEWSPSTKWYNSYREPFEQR

hIL-4Rα on cells [2] = target: T1, hIL-4Rα on cells; assay: FACS on HEK293 cells, competitor biotin-hIL-4;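 also: HEK293 cells stably co-expressing hIL-13Rα and hIL-4Rα, stained for 1 h at 4 °C, read-out as mean fluorescence intensity by flow cytometry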
hIL-4Rα on cells [3] = target: T1, hIL-4Rα on cells; assay: cell-based or functional assay
hIL-4Rα on cells [4] = target: T1, hIL-4Rα on cells; assay: cell-based or functional assay; remark: listed apart in the source
hIL-4Rα on cells [5] = target: T1, hIL-4Rα on cells; assay: cell-based or functional assay; remark: listed apart in the source

| Binder | Relative Blockade of IL-13 Binding IC50 (hIL-4Rα on cells [1]) | KD Relative to Dupilumab (human IL-4Rα) | Kd (human IL-4Rα) [nM] | KD Relative to Dupilumab (cynomolgus monkey IL-4Rα) | Kd (cynomolgus monkey IL-4Rα) [nM] | Relative Blockade of IL-4 Binding IC50 (hIL-4Rα on cells [2]) | Relative Inhibition of IL-4 induced pSTAT6 IC50 (hIL-4Rα on cells [3]) | Relative Inhibition of IL-13 induced pSTAT6 IC50 (hIL-4Rα on cells [3]) | Relative Inhibition of IL-4 induced TARC IC50 (hIL-4Rα on cells [4]) | Relative Inhibition of IL-13 induced TARC IC50 (hIL-4Rα on cells [4]) | Relative Inhibition of IL-4 induced TF-1 Proliferation IC50 (hIL-4Rα on cells [5]) | Relative Inhibition of IL-13 induced TF-1 Proliferation IC50 (hIL-4Rα on cells [5]) |
| --- | --- | --- | --- | --- | --- | --- | --- | --- | --- | --- | --- | --- |
| B1 | 1.15 relative to dupilumab | 0.86 | 0.00973 | 0.39 | 248 | 1.09 relative to dupilumab | 1.18 relative to dupilumab | 1.97 relative to dupilumab | 1.53 relative to dupilumab | 1.35 relative to dupilumab | 0.82 relative to dupilumab | 1.15 relative to dupilumab |
| B2 | 0.958 relative to dupilumab | 0.98 | 0.011 | 0.2 | 128 | 0.863 relative to dupilumab | 1.09 relative to dupilumab | 0.781 relative to dupilumab | 0.68 relative to dupilumab | 0.592 relative to dupilumab | 0.387 relative to dupilumab | 0.917 relative to dupilumab |
| B3 | 1.14 relative to dupilumab | 1.04 | 0.0118 | 1.58 | 993 | 1.36 relative to dupilumab | 1.68 relative to dupilumab | 4.76 relative to dupilumab | 4.36 relative to dupilumab | 2.4 relative to dupilumab | 1.74 relative to dupilumab | 2.01 relative to dupilumab |
| B4 | 1.34 relative to dupilumab | 0.98 | 0.0111 | 0.25 | 158 | 1.32 relative to dupilumab | 0.81 relative to dupilumab | 2.78 relative to dupilumab | 2.02 relative to dupilumab | 1.62 relative to dupilumab | 1.19 relative to dupilumab | 1.19 relative to dupilumab |
| B5 | 1.01 relative to dupilumab | 0.96 | 0.0109 | 0.31 | 192 | 1.08 relative to dupilumab | 1.25 relative to dupilumab | 4.61 relative to dupilumab | 3.09 relative to dupilumab | 14.5 relative to dupilumab | 1.68 relative to dupilumab | 1.79 relative to dupilumab |
| B6 | 1.13 relative to dupilumab | 0.84 | 0.00943 | 0.24 | 150 | 1.02 relative to dupilumab | 0.633 relative to dupilumab | 2.29 relative to dupilumab | 1.56 relative to dupilumab | 2.3 relative to dupilumab | 1.13 relative to dupilumab | 0.941 relative to dupilumab |
| B7 | 1.02 relative to dupilumab | 0.97 | 0.011 | 0.36 | 228 | 1.22 relative to dupilumab | 1.04 relative to dupilumab | 3.6 relative to dupilumab | 2.49 relative to dupilumab | 4.66 relative to dupilumab | 1.29 relative to dupilumab | 1.28 relative to dupilumab |
| B8 | 1.23 relative to dupilumab | 1.11 | 0.0125 | 2.03 | 1280 | 1.21 relative to dupilumab | 1.18 relative to dupilumab | 3.76 relative to dupilumab | 2.53 relative to dupilumab | 5.72 relative to dupilumab | 1.15 relative to dupilumab | 1.29 relative to dupilumab |
